The source of these data is PMC8924211 (Nature Communications, 2022).

What all share (experiment): AlphaScreen or HTRF; saturation binding: HEK293 cells transfected with SNAP-tagged receptor (WT or mutant) and labelled with SNAP-Lumi4-Tb, incubated with increasing concentrations of galanin-A2 in the presence or absence of 100 uM unlabeled galanin, 1 h at room temperature; HTRF ratio 665 nm/620 nm
Common to all, as to settings: one partner purified

One assay concerns the target T1, SNAP-GAL1R I266^6.54A (human, UniProt P47211 1-349, I266^6.54A, Lumi4-Tb on the SNAP tag).
T1 construct: also called I266A; source: HEK293, transfected, on cells; not shown: SNAP tag, N-terminal, kept
T1 sequence (looked up): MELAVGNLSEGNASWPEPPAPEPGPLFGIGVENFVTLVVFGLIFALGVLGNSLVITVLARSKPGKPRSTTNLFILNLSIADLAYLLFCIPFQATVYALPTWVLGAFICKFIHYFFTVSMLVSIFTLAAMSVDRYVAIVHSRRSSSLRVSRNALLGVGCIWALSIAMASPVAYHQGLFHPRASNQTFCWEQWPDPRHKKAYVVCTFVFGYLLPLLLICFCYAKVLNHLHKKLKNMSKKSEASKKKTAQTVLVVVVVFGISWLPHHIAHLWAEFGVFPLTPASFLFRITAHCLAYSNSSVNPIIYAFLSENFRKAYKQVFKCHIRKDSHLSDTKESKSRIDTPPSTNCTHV

In the next assay the target is T2, SNAP-GAL2R R184^5.35A (human, UniProt O43603 1-387, R184^5.35A, Lumi4-Tb on the SNAP tag).
T2 construct: also called R184A; source: HEK293, transfected, on cells; not shown: SNAP tag, N-terminal, kept
T2 sequence (looked up): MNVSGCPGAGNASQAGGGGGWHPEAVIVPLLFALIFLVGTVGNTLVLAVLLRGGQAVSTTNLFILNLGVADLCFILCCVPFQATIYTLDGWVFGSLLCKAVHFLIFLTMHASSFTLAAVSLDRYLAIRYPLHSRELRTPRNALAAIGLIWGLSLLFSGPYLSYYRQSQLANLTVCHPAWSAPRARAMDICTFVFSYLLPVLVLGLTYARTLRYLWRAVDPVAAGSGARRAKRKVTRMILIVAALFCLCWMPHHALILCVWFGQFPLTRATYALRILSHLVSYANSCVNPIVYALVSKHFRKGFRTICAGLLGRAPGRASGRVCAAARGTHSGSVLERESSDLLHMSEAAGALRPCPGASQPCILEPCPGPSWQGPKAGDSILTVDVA

The next assay addresses T3, SNAP-GAL2R I256^6.55A (human, UniProt O43603 1-387, I256^6.55A, Lumi4-Tb on the SNAP tag).
T3 construct: also called I256A; source: HEK293, transfected, on cells; not shown: SNAP tag, N-terminal, kept
T3 sequence (looked up): T2 sequence (looked up) with A184R, I256A

A further assay concerns the target T4, SNAP-GAL2R H252^6.51A (human, UniProt O43603 1-387, H252^6.51A, Lumi4-Tb on the SNAP tag).
T4 construct: also called H252A; source: HEK293, transfected, on cells; not shown: SNAP tag, N-terminal, kept
T4 sequence (looked up): T2 sequence (looked up) with A184R, H252A

Positions count from the first letter of the chain named.

B1: galanin-A2 (full-length galanin labeled with the dye A2 on an additional cysteine at the C-terminal end) (peptide)
peptide: GWTLNSAGYLLGPHAVGNHRSFSDKNGLTSC
modifications: dye A2 on the additional C-terminal cysteine
notes: numbers count on: the mature protein; additional cysteine at the C-terminal end of the peptide, carries the dye A2; source: synthetic peptide (synthesized by Vazyme, China)
For the molecule B1, the Kd with SNAP-GAL1R I266^6.54A turned out to be 245 nM; with SNAP-GAL2R R184^5.35A, 286 nM; in the assay with SNAP-GAL2R I256^6.55A, 221 nM; with SNAP-GAL2R H252^6.51A, 246 nM.
